Measured values from US11214614B2, “LTBP complex-specific inhibitors of TGFβ and uses thereof” (Scholar Rock, Inc., priority 2019, dated 2022).

Key:
huLTBP1 proTGFβ1 = huLTBP1 proTGFβ1 (Homo sapiens, UniProt P01137+Q14766); assay: SPR (Biacore 8K) monovalent binding kinetics of Fabs, biotinylated antigen captured; design: biotin (complex biotinylated); details: for KD of Fab fragments / Binding of human Fabs for huLTBP1 proTGFβ1 and huLTBP3 proTGFβ1 (FIGS. 23, 24): SPR; for KD of Fab fragments: antigen not given; for Monovalent affinities (FIGS. 23, 24): figure legends
Summary of the method: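 Biotinylated proTGFβ1 complexes (10 nM) captured on Biotin CAPture chip; Fabs injected at 10, 5, 2.5, 1.25, 0.625 nM (0 nM reference), 120 s contact, 900 s dissociation, multi-cycle with regeneration. HBS-EP+ pH 7.4; global 1:1 fit for ka, kd, KD.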

murine LTBP1-proTGFβ1 = molecular target: T1, murine LTBP1-proTGFβ1 (Mus musculus, UniProt P04202+Q8CG19); assay: Murine LTBP overexpression caga assay: LN229 cells co-transfected with mouse LTBP1 and mouse proTGFβ1, CAGA12 reporter cells; format: cell-based; details: overexpressed murine LTBP1-proTGFβ1
T1 construct: expressed in transfected cells; host or cells: LN229
Method: Additionally, the ability of SR-AB2 to inhibit LTBP1/3-proTGFβ1 in a cell-based assay was also conducted. As essentially described above in Example 2, LN229 cells were seeded on fibronectin pre-coated assay wells and directly transfected with the indicated DNA molecules.
LTBP complex-specific antibodies from the first round of affinity maturation/optimization (i.e., SR-AB14, SR-AB16, SR-AB17, SR-AB18, SR-AB19) were selected for a second round of affinity maturation/optimization (i.e., CDR-H3 mutagenesis as described herein) and particular progeny antibodies (SR-AB20, SR-AB21, SR-AB22, SR-AB23, SR-AB24, SR-AB25, SR-AB26, SR-AB27, SR-AB28, and SR-AB29) were assessed for their ability to inhibit TGFβ activity using LN229 cells. For the assays depicted in FIGS. 13A, 13B, 14A, and 14B the following protocol was used, which is a modified version of Assay II in Example 2. […]
On day 0, prior to cell seeding, assay plates were coated with Fibronectin (LTBP over expression assay only). […] The cell pellet was resuspended in D10 media and viable cells per ml counted. […]

Chain of huLTBP1 proTGFβ1 (P01137 30-390): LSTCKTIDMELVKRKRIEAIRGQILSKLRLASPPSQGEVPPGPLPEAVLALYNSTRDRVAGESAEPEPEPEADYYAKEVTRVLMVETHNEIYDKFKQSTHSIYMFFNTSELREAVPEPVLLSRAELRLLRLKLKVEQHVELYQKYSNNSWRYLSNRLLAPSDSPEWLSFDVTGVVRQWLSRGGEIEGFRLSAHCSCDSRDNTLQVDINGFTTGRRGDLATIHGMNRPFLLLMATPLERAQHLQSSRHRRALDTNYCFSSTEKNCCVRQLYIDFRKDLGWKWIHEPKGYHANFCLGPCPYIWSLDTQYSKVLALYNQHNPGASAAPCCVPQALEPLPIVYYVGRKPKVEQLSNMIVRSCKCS
Chain of huLTBP1 proTGFβ1 (Q14766 347-1721 limits assumed): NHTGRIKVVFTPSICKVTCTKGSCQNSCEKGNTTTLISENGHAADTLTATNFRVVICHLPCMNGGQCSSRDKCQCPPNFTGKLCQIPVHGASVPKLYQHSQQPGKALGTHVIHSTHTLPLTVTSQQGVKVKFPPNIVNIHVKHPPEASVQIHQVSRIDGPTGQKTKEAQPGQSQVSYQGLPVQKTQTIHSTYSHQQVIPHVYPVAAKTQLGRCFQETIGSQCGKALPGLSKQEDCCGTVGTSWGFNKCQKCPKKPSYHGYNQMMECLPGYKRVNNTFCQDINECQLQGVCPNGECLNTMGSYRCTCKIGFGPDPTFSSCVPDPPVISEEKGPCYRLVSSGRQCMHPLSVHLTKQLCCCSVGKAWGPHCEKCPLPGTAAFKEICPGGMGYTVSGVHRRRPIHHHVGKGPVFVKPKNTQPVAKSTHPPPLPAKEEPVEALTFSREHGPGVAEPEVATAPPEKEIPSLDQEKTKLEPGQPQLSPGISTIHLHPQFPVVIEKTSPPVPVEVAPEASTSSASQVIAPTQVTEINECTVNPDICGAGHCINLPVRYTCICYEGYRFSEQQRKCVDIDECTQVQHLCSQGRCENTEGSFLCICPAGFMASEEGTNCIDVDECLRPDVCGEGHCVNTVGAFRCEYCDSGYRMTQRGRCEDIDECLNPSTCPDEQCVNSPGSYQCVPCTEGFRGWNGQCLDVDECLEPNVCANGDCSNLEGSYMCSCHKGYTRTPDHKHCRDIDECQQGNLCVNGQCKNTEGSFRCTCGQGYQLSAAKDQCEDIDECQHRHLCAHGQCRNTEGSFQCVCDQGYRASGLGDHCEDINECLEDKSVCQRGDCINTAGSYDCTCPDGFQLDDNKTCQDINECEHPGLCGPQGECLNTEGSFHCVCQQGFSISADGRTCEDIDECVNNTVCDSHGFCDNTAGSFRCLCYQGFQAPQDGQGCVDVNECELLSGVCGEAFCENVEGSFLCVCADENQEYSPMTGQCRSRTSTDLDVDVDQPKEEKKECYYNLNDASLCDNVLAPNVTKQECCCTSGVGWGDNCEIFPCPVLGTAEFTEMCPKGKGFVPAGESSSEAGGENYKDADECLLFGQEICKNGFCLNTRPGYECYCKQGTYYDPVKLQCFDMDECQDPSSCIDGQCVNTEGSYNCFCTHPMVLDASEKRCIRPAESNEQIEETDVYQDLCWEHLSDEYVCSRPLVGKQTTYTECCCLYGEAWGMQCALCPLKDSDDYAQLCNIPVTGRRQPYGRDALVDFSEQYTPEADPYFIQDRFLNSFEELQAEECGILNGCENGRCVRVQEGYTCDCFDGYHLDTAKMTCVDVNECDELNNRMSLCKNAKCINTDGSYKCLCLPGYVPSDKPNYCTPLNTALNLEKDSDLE
T1 sequence (P04202 30-390): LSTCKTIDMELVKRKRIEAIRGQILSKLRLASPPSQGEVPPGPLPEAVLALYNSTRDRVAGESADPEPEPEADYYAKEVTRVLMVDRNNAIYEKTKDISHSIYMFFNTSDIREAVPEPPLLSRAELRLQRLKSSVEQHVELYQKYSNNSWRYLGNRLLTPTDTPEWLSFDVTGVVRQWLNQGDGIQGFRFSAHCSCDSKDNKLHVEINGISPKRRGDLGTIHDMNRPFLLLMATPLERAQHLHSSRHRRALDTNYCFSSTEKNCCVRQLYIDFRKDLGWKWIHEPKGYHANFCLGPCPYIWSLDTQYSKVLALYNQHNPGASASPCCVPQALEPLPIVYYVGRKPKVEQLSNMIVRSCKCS
T1 sequence (Q8CG19 339-1712 limits assumed): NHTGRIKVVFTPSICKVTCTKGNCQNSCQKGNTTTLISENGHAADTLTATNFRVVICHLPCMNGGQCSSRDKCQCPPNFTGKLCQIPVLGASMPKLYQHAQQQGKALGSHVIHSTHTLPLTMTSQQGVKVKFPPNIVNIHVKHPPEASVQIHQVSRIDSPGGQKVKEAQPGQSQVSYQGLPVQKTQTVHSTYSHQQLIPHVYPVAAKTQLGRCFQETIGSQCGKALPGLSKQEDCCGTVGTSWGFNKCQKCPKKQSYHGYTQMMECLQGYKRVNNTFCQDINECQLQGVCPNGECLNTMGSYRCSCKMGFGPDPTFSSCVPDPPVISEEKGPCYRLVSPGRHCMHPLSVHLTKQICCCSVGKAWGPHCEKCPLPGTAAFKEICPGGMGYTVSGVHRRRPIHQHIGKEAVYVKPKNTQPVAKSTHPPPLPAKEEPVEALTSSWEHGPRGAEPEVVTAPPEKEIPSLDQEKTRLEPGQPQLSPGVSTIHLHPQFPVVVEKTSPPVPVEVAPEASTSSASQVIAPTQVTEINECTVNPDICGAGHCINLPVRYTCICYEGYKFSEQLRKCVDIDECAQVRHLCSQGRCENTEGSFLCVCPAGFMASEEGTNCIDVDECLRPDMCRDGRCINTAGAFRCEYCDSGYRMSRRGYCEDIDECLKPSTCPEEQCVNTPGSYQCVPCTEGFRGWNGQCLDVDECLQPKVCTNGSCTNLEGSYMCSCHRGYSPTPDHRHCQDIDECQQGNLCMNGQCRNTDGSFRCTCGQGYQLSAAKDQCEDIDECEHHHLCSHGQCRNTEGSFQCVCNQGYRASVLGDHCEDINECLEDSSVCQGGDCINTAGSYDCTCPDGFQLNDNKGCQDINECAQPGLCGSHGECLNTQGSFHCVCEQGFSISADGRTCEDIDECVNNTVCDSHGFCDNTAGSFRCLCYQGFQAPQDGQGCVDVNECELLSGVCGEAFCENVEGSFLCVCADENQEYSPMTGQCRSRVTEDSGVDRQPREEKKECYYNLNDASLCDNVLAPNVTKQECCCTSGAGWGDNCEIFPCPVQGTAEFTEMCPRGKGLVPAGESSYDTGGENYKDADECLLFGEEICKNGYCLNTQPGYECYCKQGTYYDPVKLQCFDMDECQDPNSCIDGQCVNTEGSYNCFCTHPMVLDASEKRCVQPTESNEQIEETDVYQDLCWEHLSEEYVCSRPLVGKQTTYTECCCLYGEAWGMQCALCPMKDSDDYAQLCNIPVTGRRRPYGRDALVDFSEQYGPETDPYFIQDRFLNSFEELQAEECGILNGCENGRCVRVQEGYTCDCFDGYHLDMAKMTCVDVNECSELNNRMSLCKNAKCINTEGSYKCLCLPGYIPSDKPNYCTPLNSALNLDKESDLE

Molecule | KD of Fab fragments (huLTBP1 proTGFβ1) | Binding of human Fabs for huLTBP1 proTGFβ1 and huLTBP3 proTGFβ1 (FIGS. 23, 24) (huLTBP1 proTGFβ1) | Monovalent affinities (FIGS. 23, 24) (huLTBP1 proTGFβ1) | Inhibition of TGFβ1 activation (TGFβ activity, luciferase) (murine LTBP1-proTGFβ1)
SR-AB42: cycle 3 antibody, lineage SR-AB23; CDRs SEQ ID NO: 166-171; HCVR SEQ ID NO: 318, LCVR SEQ ID NO: 319 (antibody, V domains shown) VH: QVQLVESGGGVVQPGRSLRLSCAASGFTFRSYVMHWVRQAPGKGLEWVAVISHEGSLKYYADSVKGRFTISRDNSKNTLYLQMNSLRAEDTAVYYCARPRIAARRGGFGYWGQGTLVTVSS VL: NFMLTQPHSVSESPGKTVTISCTRSSGNIDNNYVQWYQQRPGSSPTTVIYEDNQRPSGVPDRFSGSIDSSSNSASLTISGLKTEDEADYYCQSYDYDTQGVVFGGGTKLTVL | sub-nanomolar | context-selective binding | picomolar monovalent affinities | –
SR-AB22: second-round (CDR-H3 mutagenesis) antibody, lineage SR-AB14; CDRs SEQ ID NO: 108-113 (antibody, V domains shown) VH: QVQLVESGGGVVQPGRSLRLSCAASGFTFRSYVMHWVRQAPGKGLEWVAVISHEGSLKYYADSVKGRFTISRDNSKNTLYLQMNSLRAEDTAVYYCAVPRIAARRGGFGYWGQGTLVTVSS VL: NFMLTQPHSVSESPGKTVTISCTRSSGNIDNNYVQWYQQRPGSSPTTVIYEDNQRPSGVPDRFSGSIDSSSNSASLTISGLKTEDEADYYCQSYDSDNQGVVFGGGTKLTVL | – | – | – | improved potency
SR-AB23: second-round (CDR-H3 mutagenesis) antibody, lineage SR-AB14; CDRs SEQ ID NO: 116-121 (antibody, V domains shown) VH: QVQLVESGGGVVQPGRSLRLSCAASGFTFRSYVMHWVRQAPGKGLEWVAVISHEGSLKYYADSVKGRFTISRDNSKNTLYLQMNSLRAEDTAVYYCARPRIAARRGGFGYWGQGTLVTVSS VL: NFMLTQPHSVSESPGKTVTISCTRSSGNIDNNYVQWYQQRPGSSPTTVIYEDNQRPSGVPDRFSGSIDSSSNSASLTISGLKTEDEADYYCQSYDSDNQGVVFGGGTKLTVL | – | – | – | improved potency
SR-AB63: cycle 3 antibody, lineage SR-AB26; CDRs SEQ ID NO: 292-297; HCVR SEQ ID NO: 360, LCVR SEQ ID NO: 361 (antibody, V domains shown) VH: QLQLQESGPGLVKPSETLSLTCTVSGGSIRSSSYYWGWIRQPPGKGLEWIGSISYSATTYYNPSLKSRVTISVDTSKNQFSLKLSSVTAADTAVYYCAGDPSYDSIAGMQVWGQGTTVTVSS VL: DIQLTQSPSSLSASVGDRVTITCRASQSISSYLNWYQQKPGKAPKLLIYAASNLQSGVPSRFSGSGSGTDFTLTISSLQPEDFATYYCQQSFDWPLTFGGGTKVEIK | sub-nanomolar | context-selective binding | picomolar monovalent affinities | –
